The results in this text go back to patent US20230174641A1 (H LUNDBECK A S, published 2023).

Changes are numbered by the printed parent chain. Ends that are not written are not given here.

To fix the notation:
T1: human ACTH 1-39 (human)
T1 peptide: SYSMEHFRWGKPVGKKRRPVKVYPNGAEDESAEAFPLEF

T2: human ACTH 1-13 (human, ends and bridges not checked)
T2 construct: also called human alpha-MSH (ACTH 1-13); alpha-MSH
T2 peptide: SYSMEHFRWGKPV

T3: human ACTH 18-39 (human)
T3 construct: also called CLIP; CLIP (ACTH 18-39)
T3 peptide: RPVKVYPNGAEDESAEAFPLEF

T4: N-term biotinylated human ACTH 1-39 (human, N-terminal biotin)
T4 construct: also called huACTH 1-39
T4 peptide: T1 peptide

B1: Ab1 (antibody, human IgG1, kappa, N297A, V domains shown)
VH: QSVKESGGRLVTPGTPLTLTCTVSGFSLSNYDMIWVRQAPGKGLESIGMIYDDGDTYYASWAKGRFTISKTSTTVDLKIISPTTEDTATYFCVKGVSNHWGPGTLVTVSS
VL: DVVMTQTPASVEAAVGGTVTIKCQASQSISSYLAWYQQKPGQPPKLLIYSASTLASGVPSRFKGRGSGTEFTLTISDLECADAATYYCQSYDGSSGSSYGVGFGGGTEVVVKR
notes: rabbit/human chimeric antibody, made in HEK-293
B2: Ab11 (antibody, human IgG1, kappa, N297A, V domains shown)
VH: QSLEESGGRLVTPGTSLTLTCTASGFSLSAYDILWVRQAPGKGLESIGMMYDDGDTYYATWAKGRFIISRTSTTMDLKIISPTTEDTATYFCVKGVSNIWGQGTLVTVSS
VL: B1 VL with V2I, T7I, S30D, Y32S, R65S, S76G, G96S, S98Y, V101I
notes: as for B1
B3: Ab10 (antibody, human IgG1, kappa, N297A, V domains shown)
VH: B1 VH with K4E, N30S, Y31A, S60T, N98S, H99V, P102Q
VL: B1 VL with K22N, Q27E, S28N, S30Y, S31R, Y32S, R65S, G96S
notes: as for B1
B4: Ab4 (antibody, human IgG1, kappa, N297A, V domains shown)
VH: B1 VH with K4E, C21Y, N30K, Y31H, M49I, S60N, H99I
VL: B1 VL with Q24R, S31V, P40A, S50Q, T53K, R65S, G96S
notes: as for B1
B5: Ab7 (antibody, human IgG1, kappa, N297A, V domains shown)
VH: QSVEESGGRLVTPGTPLTLTCTVSGFSLSSYAMSWVRQAPGEGLEWIGIISDSGSTYYASWAKGRFTISKTSTTVDLRITSPTTEDTATYFCAREPEYGYDDYGDWVSDLWGQGTLVTVSS
VL: DIVMTQTPASVEAAVGGTVTIKCQASQSISDYLSWYQQKPGQPPKLLIYRASTLASGVPSRFKGSGSGTQFTLTISDLECADAATYYCQSYYYSSSITYRNAFGGGTEVVVKR
notes: as for B1
B6: Ab9 (antibody, human IgG1, kappa, N297A, V domains shown)
VH: B5 VH with S29N, S55R, R78K, Q113P
VL: B5 VL with I2V, D31S
notes: as for B1
B7: Ab12 (antibody, human IgG1, kappa, N297A, V domains shown)
VH: B1 VH with K4E, F26S, N30D, M49I, S60T, K78R, H99M
VL: B1 VL with A9S, E12S, S30G, Y32S, P43R, S50A, R65S, G96S
notes: as for B1
B8: Ab2.H (antibody, human IgG1, kappa, N297A, V domains shown)
VH: EVQLVESGGGLVQPGGSLRLSCAASGFTVSKYDMIWVRQAPGKGLESIGIIYDDGDTYYASSAKGRFTISRDNSKNTLYLQMNSLRAEDTAVYYCVKGVSNIWGQGTLVTVSS
VL: DIQMTQSPSTLSASVGDRVTITCQASQSISNYLAWYQQKPGKAPKLLIYSASTLASGVPSRFSGSGSGTEFTLTISSLQPDDFATYYCQSYEGSSSSSYGVGFGGGTKVEIKR
notes: humanized form of Ab2
B9: Ab11A.H (antibody, human IgG1, kappa, N297A, V domains shown)
VH: B8 VH with K31A, M34I, I35L, I50M, I51M, S61T
VL: B8 VL with S30G, N31S, Y32S, S98Y, V101I
B10: Ab11.H (antibody, human IgG1, kappa, N297A, V domains shown)
VH: B8 VH with K31A, M34I, I35L, I50M, I51M, S61T
VL: B8 VL with S30D, N31S, Y32S, E92D, S98Y, V101I
notes: humanized form of Ab11
B11: Ab12.H (antibody, human IgG1, kappa, N297A, V domains shown)
VH: not shown
VL: B8 VL with S30G, N31S, Y32S, S50A, E92D
notes: humanized form of Ab12
B12: Ab1.H (antibody, human IgG1, kappa, N297A, V domains shown)
VH: B8 VH with K31N, I50M, I102H
VL: B8 VL with N31S, E92D, S96G
notes: humanized form of Ab1
B13: Ab10.H (antibody, human IgG1, kappa, N297A, V domains shown)
VH: B8 VH with K31S, Y32A, I50M, S61T, N101S, I102V
VL: B8 VL with Q27E, S28N, S30Y, N31R, Y32S, E92D
notes: humanized form of Ab10
B14: Ab4.H (antibody, human IgG1, kappa, N297A, V domains shown)
VH: B8 VH with Y32H, S61N
VL: B8 VL with Q24R, N31V, S50Q, T53K, E92D
notes: humanized form of Ab4

One assay deals with T1, human ACTH 1-39. Kind of assay: cell-based or functional assay.
With B1, the “MC3R IC50” value came out at 101 nM, the “MC4R IC50” value amounted to 56.4 nM and the “MC5R IC50” value turned out to be 1100 nM.
B2: the “MC3R IC50” value was determined as 108 nM, the “MC4R IC50” value amounted to 49.4 nM and the “MC5R IC50” value is 4200 nM.
As to B3, the “MC3R IC50” value was determined as 133 nM, the “MC4R IC50” value stood at 66.3 nM and the “MC5R IC50” value was 5400 nM.
Consider B4, for which the “MC3R IC50” value is 113 nM, the “MC4R IC50” value is 65.8 nM and the “MC5R IC50” value was 1300 nM.
Consider B5, for which the “MC3R IC50” value was 64.2 nM, the “MC4R IC50” value stood at 49.7 nM and the “MC5R IC50” value stood at 1100 nM.

The target of another assay is T2, human ACTH 1-13. Briefly: SPR ProteOn, antibody immobilised; SPR, antibody on the chip, alpha-MSH alone (Table 6). How it is done:
(§1) Antibody was immobilized to the surface of general amine coupling (GLC or GLM) Chips (Bio-Rad). […] At the chosen concentrations of antigen (ranging from 454 ng/ml to 5.6 ng/ml) association times of 200 seconds and dissociation times of 30-200 minutes were used with the ProteOnTM Manager Software (v3.1.0.6, Bio-Rad) to group and fit data using a 1:1 Langmuir binding model. Surfaces were regenerated between analyte queries using 10 mM glycine at pH 2.0. Data repeated across a single density was averaged and a single KD and standard propagation of error calculated for each antibody.
For B5, binding was put at a Kd of 54 nM, the koff (commonly the first-order rate constant of dissociation) is 0.013 s⁻¹ and the kon (usually the second-order rate constant of association) is approximately 240000 M⁻¹ s⁻¹.
For B6, the affinity, expressed as Kd, was 63 nM; the koff came to 0.009 s⁻¹; the kon is approximately 140000 M⁻¹ s⁻¹.

In a further assay the target is T2, human ACTH 1-13. Kind of assay: SPR ProteOn, antibody immobilised. How it is done:
as §1
Turning to B1, the koff is more than 0.1 s⁻¹.
Regarding B7, the koff is more than 0.1 s⁻¹.
B2 came in with a dissociation rate constant (koff) of more than 0.1 s⁻¹.
On the same count and under the same terms, then B3, with more than 0.1 s⁻¹; and B4, with more than 0.1 s⁻¹.

Another assay addresses T1, human ACTH 1-39. Kind of assay: SPR ProteOn, antibody immobilised. The procedure:
as §1
In the case of B1, the Kd (as a rule, the equilibrium constant for the complex coming apart) turned out to be 0.19 nM and the koff came to 0.00019 s⁻¹.
Regarding B2, the Kd came to 0.04 nM, the koff came to 4e-05 s⁻¹ and the on-rate (kon) is 1e+06 M⁻¹ s⁻¹.
In the case of B3, the dissociation constant Kd came to 0.11 nM, the koff came out at 0.00011 s⁻¹ and the kon was found to be 1e+06 M⁻¹ s⁻¹.
For B4, in that order: 0.27 nM, 0.00027 s⁻¹ and 1e+06 M⁻¹ s⁻¹.
In the same order, the values of B5 are 0.037 nM, 3.7e-05 s⁻¹ and 1e+06 M⁻¹ s⁻¹.

A further assay concerns the target T3, human ACTH 18-39. Kind of assay: SPR ProteOn, antibody immobilised. The procedure: as §1
On to B1, for which the Kd stood at 150 nM, the koff was determined as 0.092 s⁻¹ and the kon amounted to 620000 M⁻¹ s⁻¹.
The molecule B4 had an equilibrium dissociation constant (Kd) of 270 nM, a koff of 0.19 s⁻¹ and an association rate constant (kon) of 710000 M⁻¹ s⁻¹.
B5 yielded a koff of more than 0.1 s⁻¹.
In the case of B6, the koff is more than 0.1 s⁻¹.
B8: the Kd is 28 nM.
In the case of B9, the Kd came to 20 nM.
On to B10, for which binding was put at a Kd of 20 nM.
Same read-out and setting: then B11, with 8.8 nM; and B12, with 20 nM; and B13, with 13 nM.
The same measure, in the same setting: then B14, with 92 nM.

The target of another assay is T1, human ACTH 1-39. Briefly: cell-based or functional assay. This is another data set of the same source.
As for B1, the “MC2R IC50” value came out at 0.14 nM.
For the molecule B7, the “MC2R IC50” value was 0.05 nM.
Take B2: the “MC2R IC50” value came out at 0.03 nM.
As for B3, the “MC2R IC50” value stood at 0.16 nM.
For B4, the “MC2R IC50” value worked out at 0.46 nM.
On to B5, for which the “MC2R IC50” value was determined as 0.09 nM.
In the case of B6, the “MC2R IC50” value amounted to 0.12 nM.

For another assay, the target named is T1, human ACTH 1-39. Briefly: cell-based or functional assay. The source holds these as a separate data set.
Consider B1, for which the “Y1 Cells IC50” value worked out at 2.36 nM.
Same read-out and setting: then B7, with 2.68 nM; and B2, with 1.53 nM.
Regarding B3, the “Y1 Cells IC50” value came out at 5.98 nM.
Same read-out and setting: then B4, with 17.2 nM; and B5, with 2.49 nM.
On the same count and under the same terms, then B6, with 3.47 nM.

The next assay deals with T3, human ACTH 18-39. Briefly: SPR ProteOn, antibody immobilised; SPR, antibody on the chip, CLIP alone (Table 5). The procedure: as §1
Turning to B7, the Kd stood at 27 nM, the koff was 0.024 s⁻¹ and the kon came out at 890000 M⁻¹ s⁻¹.
For the molecule B2, the Kd came out at 54 nM, the koff worked out at 0.086 s⁻¹ and the kon was found to be 1.6e+06 M⁻¹ s⁻¹.
In turn, B3 returned a Kd of 250 nM, a koff of 0.27 s⁻¹ and a kon of 1.1e+06 M⁻¹ s⁻¹.

A further assay addresses T1, human ACTH 1-39. Kind of assay: cell-based or functional assay. The source holds these as a separate data set.
With B1, the “MC1R IC50” value is 2.38 nM.
On to B7, for which the “MC1R IC50” value was 1.66 nM.
Turning to B2, the “MC1R IC50” value was determined as 1.49 nM.
As to B3, the “MC1R IC50” value came to 2.14 nM.
The same measure, in the same setting: then B4, with 5.73 nM; and B5, with 1.29 nM.

The next assay has as its target T4, N-term biotinylated human ACTH 1-39. Kind of assay: ELISA, biotin-ACTH 1-39 on neutravidin plate. The procedure: All incubations were done at room temperature. […] The plates were then blocked using a blocking solution (PBS, 0.5% fish skin gelatin, 0.05% Tween-20) for approximately one hour. The blocking solution was then removed and the plates were then incubated with a dilution series of the antibody being tested for approximately one hour. At the end of this incubation, the plate was washed three times with wash buffer and further incubated with a secondary antibody containing solution (Peroxidase conjugated AffmiPure™ F(ab′)₂ fragment goat anti-human IgG, Fc fragment specific (Jackson Immunoresearch) for approximately 45 minutes and washed three times. Next a substrate solution (TMB peroxidase substrate, BioFx®, SurModics, Eden Prairie, Minn.) was added and incubated for 3 to 5 minutes in the dark. The reaction was stopped by addition of 0.5 M HCl and the plate was read at 450 nm in a plate-reader.
Background: In an ELISA, binding on a coated surface is turned into a signal by an enzyme label.
For the molecule B1, the EC50 (as a rule, the concentration that produces a half-maximal response) is 0.48 nM.
Regarding B7, the midpoint of the response, the EC50, lay at 0.76 nM.
Turning to B3, the EC50 is 1.57 nM.
For B4, it took 0.39 nM to reach a half-maximal effect (EC50).
Molecule B5 came in with an EC50 of 2.24 nM.
In turn, B6 gave a half-maximal effective concentration (EC50) of 2.05 nM.
